The target of series [1] is T1, aI2-encoded protein P714T P714T (Saccharomyces cerevisiae) (UniProt P03876).
T1 sequence: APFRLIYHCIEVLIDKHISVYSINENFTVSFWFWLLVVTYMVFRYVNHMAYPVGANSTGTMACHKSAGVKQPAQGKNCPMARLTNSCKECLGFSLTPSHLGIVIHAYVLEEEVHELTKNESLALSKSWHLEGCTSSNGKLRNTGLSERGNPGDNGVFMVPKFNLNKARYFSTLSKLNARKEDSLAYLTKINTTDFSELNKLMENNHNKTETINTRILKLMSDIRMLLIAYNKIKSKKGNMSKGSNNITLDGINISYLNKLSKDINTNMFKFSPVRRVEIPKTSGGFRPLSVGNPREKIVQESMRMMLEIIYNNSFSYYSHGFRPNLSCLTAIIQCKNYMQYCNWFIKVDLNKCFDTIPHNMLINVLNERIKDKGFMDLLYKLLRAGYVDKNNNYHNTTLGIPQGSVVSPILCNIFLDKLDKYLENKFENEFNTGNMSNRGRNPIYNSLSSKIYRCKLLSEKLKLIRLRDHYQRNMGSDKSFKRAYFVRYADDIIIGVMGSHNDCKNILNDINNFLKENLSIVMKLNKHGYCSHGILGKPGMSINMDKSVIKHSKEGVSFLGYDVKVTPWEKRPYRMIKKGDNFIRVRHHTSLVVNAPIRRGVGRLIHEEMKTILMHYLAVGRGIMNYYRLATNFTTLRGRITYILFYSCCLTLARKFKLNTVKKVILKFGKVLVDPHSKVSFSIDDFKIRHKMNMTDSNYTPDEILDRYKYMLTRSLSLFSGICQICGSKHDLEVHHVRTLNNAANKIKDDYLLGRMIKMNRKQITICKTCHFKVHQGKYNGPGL
In words: cleavage_in_vitro. As to conditions: relative to Example 1 RNP.

Series [2] has as its target T2, aI2-encoded protein (wild-type, 62 kDa), aI2 RNP particle (Saccharomyces cerevisiae) (UniProt P03876).
T2 sequence: T1 sequence with T714P
The experiment in a line: cleavage_in_vitro. As to conditions: 20 mM Mg.

Where a chain is given by its changes, count along the chain named.

Take “excised aI2 RNA, strain-specific mutated ; pE2E3-derived substrate, E2-E3 target”: the relative cleavage activity in series [1] (antisense strand) was found to be 6%; in series [1] (sense strand), 25%.
Substance “excised aI2 intron RNA ; pE2E3 142 nt RNA substrate” yielded a binding signal (relative rate) in series [2] of 1.

Values taken from US5698421.
